Reference: paper PMC4368477

Molecular target: HA head of H1N1 A/Solomon Islands/3/2006 (Influenza A virus, A/Solomon Islands/3/2006 (H1N1))
Assay: BLI

Substance	Kd	koff	kon
CH65 Fab with light-chain reversion R29S	1210 nM		
CH67 Fab with light-chain reversion R29S	370 nM	0.019 s⁻¹	52000 M⁻¹ s⁻¹
CH67 Fab with light-chain reversions D33H and R31S	1500 nM	0.067 s⁻¹	
